Reference: patent publication US12458681B2, “Compositions and method for treating acute radiation syndrome” (Prince Biotech, LLC, priority 2014, dated 2025)

Experiments:
[1] = target: Insulin-degrading enzyme (IDE) (Homo sapiens, UniProt P14735); assay: Differential Shift Assay of PIF mutants; format: binding
Source text: Thus 2 putative mutants were conceived, mutant-1: P6→E6, and mutant-3:[…]; c. Table represent the mutants that were considered, of them 2 were synthesized based on their putative availability as options for ligand-receptor disruptors.

NOD mice = settings: adoptive transfer and spontaneous disease, long term; cited from earlier work

Sequence	binding to IDE [1]	diabetes development (NOD mice)
MVRGKPGSANKPSDD [mut3]	bind	
MVRIKEGSANKPSDD [mut1]	bind	
GRVDPSNKSMPKDIA [PTFscr]		no effect
